# Test results published in paper PMC4363659.
# Assays:
# Experiment in all cases: fluorescence polarization
# Conditions in all cases: FP: 50 mM Tris/HCl pH 8.0, 150 mM NaCl, 1 mM TCEP, 0.1 mg/ml BSA, 0.5 nM DNA, RT 10 min, EMSA: 10 mM HEPES pH 7.5, 100 mM KCl, 5 mM MgSO4, 5% glycerol
# [1] = test system: His6::AvrBs3 (Xanthomonas campestris pv. vesicatoria)
# [2] = test system: His6::AvrBs3ΔN152 (Xanthomonas campestris pv. vesicatoria)
# [3] = test system: His6::AvrBs3ΔN152-C16 (Xanthomonas campestris pv. vesicatoria)
substance,measurement,setting,value
E1U20 36-bp UPA20 promoter fragment (fluorescein),Kd,[1],23.2 nM
same,Kd,[2],99.2 nM
same,Kd,[3],282 nM
